According to paper doi:10.1101/2022.02.25.482063:

Molecular target: motavizumab
Assay: SPR

Substance: RSV F glycoprotein S275H, on virions of recombinant RSV-A2 mKate2 (natural protein)
- fold reduction of the on-rate (ka) against WT: > 6 fold
